Columns and labels:
[1] = target: full-length BICD2 F739I (mouse) (UniProt Q921C5); assay: pull-down
[2] = target: full-length BICD2 S107L (mouse) (UniProt Q921C5); assay: pull-down
[3] = target: full-length BICD2 I189F (mouse) (UniProt Q921C5); assay: pull-down
[4] = target: full-length BICD2 N188T (mouse) (UniProt Q921C5); assay: pull-down
[5] = target: full-length BICD2 (Bicaudal D2), wild type (mouse) (UniProt Q921C5); assay: pull-down
[6] = target: Rab6a^GTP (Rab6a–Q72L, aa 8–195, KCK motif) linked to liposomes (mouse) (UniProt P35279); assay: fluorescence intensity of BICD2–GFP on liposomes

| ratio of band intensity, mutant to WT BICD2 (lysate only) [1] | ratio of band intensity, mutant to WT BICD2 (lysate only) [2] | ratio of band intensity, mutant to WT BICD2 (lysate only) [3] | ratio of band intensity, mutant to WT BICD2 (lysate only) [4] | fold increase of the pull-down at the highest Rab6a^GTP concentration [5] | BICD2 molecules per Rab6a^GTP liposome (molecules per liposome) [6] | Substance |
| --- | --- | --- | --- | --- | --- | --- |
| 1.95 | 2.44 | 1.61 | 2.24 | – | – | cytoplasmic dynein, endogenous in porcine brain lysate (complex) |
| 3.65 | 2.88 | 1.88 | 3.86 | 10 fold | – | dynactin, endogenous in porcine brain lysate (from UniProt A0A287B8J2 1-1281) (complex) |
| – | – | – | – | – | 6.01 | full-length BICD2 (Bicaudal D2), wild type (from UniProt Q921C5 1-820) (natural protein) |

From publication PMC5626548
